Experimental data as given in the supplement of paper PMC9170038.

The sequences below were run on K4 kissing-loop RNA reporter (assay: apparent KD of K4 kissing-loop reporter; higher = weaker reporter binding). Conditions: Eterna round: R107; input ligand: FMN 200 uM.
Experimental: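 RNA-MaP round R107: designed RNA switches with theophylline, tryptophan, arginine or FMN aptamers are transcribed on-chip within common flanks. They are titrated with a labelled K4 kissing-loop RNA reporter in RNA-MaP buffer (100 mM Tris pH 7.5, 80 mM KCl, 4 mM MgCl2), without ligand or with the indicated ligand. Median apparent KD per design.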
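Also: bound reporter read as fluorescence of individual clusters on recovered sequencing chips by microscopy, with normalized cluster intensities fitted with a binding model.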

Sequence | apparent KD of K4 kissing-loop reporter [nM]
ACGGAUUCGAAUACCGAAUGAAAUAGGGAUACCAGCACGUGAACGUGCCCUUGGCAGCCCAGCCCAGUGAUGUUGGGCCCAUGGC [Biso] | 173
GGGAGUAGUGCGGCCGCCACUGUGAAAGUAGAAGAAUAUAGUGAUGUUAUAUAGGAUUAAAAGAAUAGGACCGGGCAUUAGAUUU [SSTRyptB.W] | 176
AAUUCAAACUGAAGGAGCGAGCAAAUCGGAGUGAUGUUCCAAGCGAGUGAUGUUCGCAUAGCUCAGGUAGGUCGCAGUUUGGAUA [Same State Arginie B GF 13] | 120
UGAUACCAGACGGCCGCCACUUCUGCAAGUCAAAGACUUGCUAAGGGAAUCGUCCAGUGAUGUUGGAGGACCGGGUCUGGUAUCU [FiskerMod 2 - Jieux - Exclusion - Tryptophan B] | 1050
UGAUACCAGACGGCCGCCACUAGGACCGGGAGUGAUGUUCCCAAUUUAAAAUGCUCGGCCGCCACUAGGACCGGGUCUGGUAUCU [TrypBX 27 #DoubleAptamer #SwitchBubble] | 173
UGACUGGACUGAAGGAGCGUUGAAGGAGCGUAGGCAGUGAUGUUGCCUACAGGUAGGUCGCAGCAGGUAGGUCGCAGUCUAGUCU [ArgBS 27 #DoubleAptamer #SwitchBubble] | 132
AAAGAUCUUCUAGAAACUAGAAGAUCAAGAGAGGAUAUCCGAAUUCGGAGAAGGCUCACUAAGUGAUGUUUGGAGCCAAUGGCAA [AK2 SS FMN A] | 1060
GCAUCCAUGGCAGGAUAUAGGUUCAUGGAGUGAUGUUCCAUAACCCGAGUGAUGUUCGUUAUCCACCUAGAAGGGCCAUGGAUGC | 208
UGUCAUUGGUCGGCCGCCACUAGGACCGGGUUUUACCUAGUGAUGUUAGUAUGAACGGCCGCCACUAGGACCGGGACCGAUGACU [KL-SSTryp-B25 #DoubleAptamer] | 343
UGGAGGAGUGAUGUUCCCGAAACAUGAGAUACCAGCGUCACAGUCCGCCCUUGGCAGCUCGGUCCAAUUUGCCUCGCGGGUAAUG [theeternabot_sameState_KL_Theo_A_23] | 244
UUGGUUGUCGUAGGAUAUGUAGGAUAUUCUAAAAUAUGAAGUGAUGUUUCUAUAAUAAGAAGAAGGACAGAAGGACGAUAACCAU [FmnBS 2 - Salish transfer #DoubleAptamer] | 84.7
CCUAUCUCAUACGAUACCAGUCCGAGUGAUGUUCGAACAGGUUUUAGUUUGCCAUAUAAUGACCCUUGGCAGCGUAUGGGAUAGG [Ex Theophylline B K4 13] | 167
CGCAGUGAUGUUGCGAGUAGCUACAGGGAAGGAGCGUGCUAGAGCACAGGUAGGUCGCCCAGUGGCAGUGAUGUUGCCAACGGGU [Exclusion ARginine A GF 18] | 132
CCAUUCUUUUACGAUACCAGUUUUAUUUAGUUAUUCAUAACCCUUGCCGAGUGAUGUUCGGACCCUUGGCAGCGUUUGCGAGAGG [zaadvmullin] | 286
AAACGCUGGAUGAAUAACAUCUAGCGAAUUCGAGGACCGGUACGGCCGCCACUCGAGCUAACUGCGAGUGAUGUUCGAUAAUAAA [Mat - Mod of OpenEnded 3 - D1] | 306
GGACUCAAAUGUAGUGAUGUUACAAGCGAUACCAGUAUCUAACAUUACCCUUGGCAGCGCGCCCAGCUCAGCAAAUUAGAUAGCG [theeternabot_sameState_KL_Theo_A_43] | 149

Sequence | apparent KD of K4 kissing-loop reporter [nM]
CGCAGUGAUGUUGCGAGUAACUACAGGGAAGGAGCGUGCUAAAGCACAGGUAGGUCGCCCAUGCAGUGAUGUUGUGUAAAAGGGU [Excluson Arginine A GF 13] | 102
AACCGUGUGGCGGCCGCCACUAGUCUCCAGUGAUGUUGGAGAGACCACGUAAGUGGUCUCCGACAUAGGACCGGGCCAUAUGGAA [Same State - Tryptophan B (Freestyle 25)] | 547
UGAUAGGACAGAAGGAGCGGAAUGCUGUCCAAAAGGACAGCAAAUAUAACAGGAGUGAUGUUCCAGGUAGGUCGCUGUCCUAUCU [ArgBX 21 #SwitchBubble #StaticStem] | 246
AAUCAAUACAGAAGGAGCGUGACAAUUACUAUUGAAUUAGGUGCUAGUGAUGUUAGCAUUACACAGGUAGGUCGCUGUACAUUUA [JR_SSArginiB_Sub011] | 81.4
CGGCUUAGUAGCGCGAGUUGACGUGCCAUCCGAGGACCGGUACGGCCGCCACUCGUGAUCUGUUAAAGUGAUGUUUUAAUGCCAU | 722
AUUAAUUUCAGAGGAUAUGCUUAAUUGAUUUAUUAUUAUCUAUUAUGCAGUGAUGUUGCAUAUUUUGCAGAAGGCUGAUUUAUAA [JR_SSFMNB_Sub018] | 123
GGAUAGGAUAGAGGAUAUGGUUUAUGCAGGAAUAACUUAUUGUGUAAAUCCAUAGGGAGUGAUGUUCCAGAAGGCUGUCCUAUCG [MatMod 14 - Jieux - Exclusion - FMN B] | 379
AGACGCCAGUCGGCCGCCACUCACAGCAGUGAUGUUGCUGAAAAUCUAGAAGAGUGAUGUUCUUAGAGGACCGGGACUCCAGUCG [Same State Tryptophan B GF 6] | 162
UGUCUGAUGGAAACAUCGGACUUUACUGAUACCAGUAUCGAUAGAUACCCUUGGCAGCAGAAUCAGUAAUAACGAGUGAUGUUCG [Ex Theophylline A K4 3] | 347
UGAUACCAGACUGAUACCAGCUAGUGAUGUUAGCUGAUCUAAGGACCGUCAAAGACGGCUAGCCCUUGGCAGCAGUCUGGUAUCU [TheoBX 13 #SwitchBubble #StaticStem] | 120
UGGACCUGACUCGAUAAGAGUCAAUGGGAUACCAGCCACGAAAGUGGCCCUUGGCAGCUCUACCAGUGAUGUUGGUCAAGGUCCU [#SwitchBubble 8 #StaticStem] | 1050
UGUGGAGGAUAUGAUACCAGCAGUGAGAGAGAGGAAGUAUAGUGAUGUUAUAUGAGAGAAUGCCCUUGGCAGCGUGUGUAGUAGG [SSTheophylB.J] | 189
CGUUUAUAGCAGGAUACCAGUACCCAUUAUGUACGUUUAUAGUAGAGUGAUGUUCUAAAGUACCCUUGGCAGCUUCCUGUGACCC [ExTheophylB.Aa] | 166
UUCUUGAUGGAAACAUCGAGGAUUACUGAUACCAGUAUCGAUAGAUACCCUUGGCAGCAGAAUCAGUGAUCACGAGUGAUGUUCG [Ex Theophylline A K4 10] | 655
AACACCCGCUAUGAUACCAGUGAAGUGAUGUUUUACUCCGGGCGUAAGACAAAGGUCAGCCACCCUUGGCAGCAUAUCCGCGUAU [theeternabot_exclusion_KL_Theo_B_35] | 721

Same assay, conditions: Eterna round: R107; input ligand: arginine 13.2 mM

Sequence | apparent KD of K4 kissing-loop reporter [nM]
ACGGAUUCGAAUACCGAAUGAAAUAGGGAUACCAGCACGUGAACGUGCCCUUGGCAGCCCAGCCCAGUGAUGUUGGGCCCAUGGC [Biso] | 185
GGGAGUAGUGCGGCCGCCACUGUGAAAGUAGAAGAAUAUAGUGAUGUUAUAUAGGAUUAAAAGAAUAGGACCGGGCAUUAGAUUU [SSTRyptB.W] | 207
AAUUCAAACUGAAGGAGCGAGCAAAUCGGAGUGAUGUUCCAAGCGAGUGAUGUUCGCAUAGCUCAGGUAGGUCGCAGUUUGGAUA [Same State Arginie B GF 13] | 95.2
UGAUACCAGACGGCCGCCACUUCUGCAAGUCAAAGACUUGCUAAGGGAAUCGUCCAGUGAUGUUGGAGGACCGGGUCUGGUAUCU [FiskerMod 2 - Jieux - Exclusion - Tryptophan B] | 823
UGAUACCAGACGGCCGCCACUAGGACCGGGAGUGAUGUUCCCAAUUUAAAAUGCUCGGCCGCCACUAGGACCGGGUCUGGUAUCU [TrypBX 27 #DoubleAptamer #SwitchBubble] | 207
UGACUGGACUGAAGGAGCGUUGAAGGAGCGUAGGCAGUGAUGUUGCCUACAGGUAGGUCGCAGCAGGUAGGUCGCAGUCUAGUCU [ArgBS 27 #DoubleAptamer #SwitchBubble] | 92.1
AAAGAUCUUCUAGAAACUAGAAGAUCAAGAGAGGAUAUCCGAAUUCGGAGAAGGCUCACUAAGUGAUGUUUGGAGCCAAUGGCAA [AK2 SS FMN A] | 1100
